Experimental findings from publication doi:10.1101/2025.10.25.684504 are described below.

Common to all, as to experiment: cryo-EM structure
Assay [1] concerns the target ApCsm6 H369A (Actinomyces procaprae).
Assay [2] deals with ApCsm6 R723A (Actinomyces procaprae).
Assay [3] addresses Actinomyces procaprae Csm6 (ApCsm6), wild type (Actinomyces procaprae).

What is called stoichiometry N is the number of molecules, sites or subunits per partner or assembly. As to ApCsm6 H369A (enzyme), the stoichiometry N in assay [1] was 4.
For the substance ApCsm6 R723A (enzyme), the stoichiometry N in assay [2] worked out at 4.
Regarding “Actinomyces procaprae Csm6 (ApCsm6), wild type (enzyme)”, the stoichiometry N in assay [3] stood at 4.
